Consider six sequences from the supplement of paper PMC5998384.

Series [1] relates to HeLa Kyoto. The series is described as follows: solubility in G1/S (NP-40 vs SDS abundance) (log2 ratio); higher = more soluble. The note with it: cell cycle stage: G1/S.
Series [2] deals with HeLa Kyoto. Kind of series: melting temperature (median over replicates), in situ; higher = more thermally stable.
The subject of series [3] is HeLa Kyoto. Kind of series: thermal stability score vs G1/S (z-score of summed log2 fold changes over temperatures); higher = more thermally stable than in G1/S.
Series [4] has as its system HeLa Kyoto. Kind of series: solubility change mitosis vs G1/S (difference of NP-40 vs SDS log2 ratios) (log2 ratio difference); higher = more soluble in mitosis.
Setting [5] is: cell cycle stage: early G1 (4.5 h after nocodazole release).
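For melting temperature (median over replicates), in situ in this document: HeLa Kyoto cells synchronized by double thymidine or nocodazole block, proteins quantified by TMT10plex mass spectrometry, three independent biological replicates.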
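For solubility change mitosis vs G1/S (difference of NP-40 vs SDS log2 ratios) in this document: synchronized HeLa Kyoto cells (double thymidine block for G1/S, nocodazole release for mitosis), protein amounts in NP-40 versus SDS lysates quantified by mass spectrometry, three biological replicates.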
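For solubility in G1/S (NP-40 vs SDS abundance) in this document: HeLa Kyoto cells arrested at G1/S by double thymidine block, proteins quantified by TMT10plex mass spectrometry in mild NP-40 versus SDS extracts, three biological replicates.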
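For thermal stability score vs G1/S (z-score of summed log2 fold changes over temperatures) in this document: synchronized HeLa Kyoto cells, proteins quantified by TMT10plex mass spectrometry, three biological replicates, mitosis taken 0.5 h after nocodazole release, G1/S directly after double thymidine block.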

As to “MGEPQGSMRILVTGGSGLVGKAIQKVVADGAGLPGEDWVFVSSKDADLTDTAQTRALFEKVQPTHVIHLAAMVGGLFRNIKYNLDFWRKNVHMNDNVLHSAFEVGARKVVSCLSTCIFPDKTTYPIDETMIHNGPPHNSNFGYSYAKRMIDVQNRAYFQQYGCTFTAVIPTNVFGPHDNFNIEDGHVLPGLIHKVHLAKSSGSALTVWGTGNPRRQFIYSLDLAQLFIWVLREYNEVEPIILSVGEEDEVSIKEAAEAVVEAMDFHGEVTFDTTKSDGQFKKTASNSKLRTYLPDFRFTPFKQAVKETCAWFTDNYEQARK [TSTA3]”, the “solubility in G1/S (log2)” value with HeLa Kyoto [1] turned out to be 0.141. The melting temperature in the series on HeLa Kyoto [2] (cell cycle stage: G1/S) amounted to 59.3 °C; in the series with HeLa Kyoto [2] (cell cycle stage: mitosis), 58.2 °C. Further, the thermal stability score in the series on HeLa Kyoto [3] (setting [5]) is -3.68; in the series with HeLa Kyoto [3] (cell cycle stage: mitosis) it was -2.17. Also, in the series with HeLa Kyoto [4], the “solubility change mitosis (log2)” value is -0.116.
Take “MGFGDLKSPAGLQVLNDYLADKSYIEGYVPSQADVAVFEAVSSPPPADLCHALRWYNHIKSYEKEKASLPGVKKALGKYGPADVEDTTGSGATDSKDDDDIDLFGSDDEEESEEAKRLREERLAQYESKKAKKPALVAKSSILLDVKPWDDETDMAKLEECVRSIQADGLVWGSSKLVPVGYGIKKLQIQCVVEDDKVGTDMLEEQITAFEDYVQSMDVAAFNKI [EEF1B2]”: the “solubility in G1/S (log2)” value in the series with HeLa Kyoto [1] was found to be 0.522. The melting temperature stood at 50.7 °C with HeLa Kyoto [2] (cell cycle stage: G1/S) and 50.6 °C in the series with HeLa Kyoto [2] (cell cycle stage: mitosis). The thermal stability score is -1.43 with HeLa Kyoto [3] (setting [5]) and -1.91 in the series on HeLa Kyoto [3] (cell cycle stage: mitosis). Besides, the “solubility change mitosis (log2)” value in the series on HeLa Kyoto [4] was found to be 0.236.
On to “MGHPPLLPLLLLLHTCVPASWGLRCMQCKTNGDCRVEECALGQDLCRTTIVRLWEEGEELELVEKSCTHSEKTNRTLSYRTGLKITSLTEVVCGLDLCNQGNSGRAVTYSRSRYLECISCGSSDMSCERGRHQSLQCRSPEEQCLDVVTHWIQEGEEGRPKDDRHLRGCGYLPGCPGSNGFHNNDTFHFLKCCNTTKCNEGPILELENLPQNGRQCYSCKGNSTHGCSSEETFLIDCRGPMNQCLVATGTHEPKNQSYMVRGCATASMCQHAHLGDAFSMNHIDVSCCTKSGCNHPDLDVQYRSGAAPQPGPAHLSLTITLLMTARLWGGTLLWT [PLAUR]”, for which the “solubility in G1/S (log2)” value in the series on HeLa Kyoto [1] was 0.19. In addition, the melting temperature in the series with HeLa Kyoto [2] (cell cycle stage: G1/S) worked out at 52.8 °C; with HeLa Kyoto [2] (cell cycle stage: mitosis), 56.2 °C. In addition, the thermal stability score in the series on HeLa Kyoto [3] (setting [5]) was 0.197; in the series with HeLa Kyoto [3] (cell cycle stage: mitosis) it was 4.92. Also, the “solubility change mitosis (log2)” value in the series on HeLa Kyoto [4] was -0.232.
For “MGKGDPKKPRGKMSSYAFFVQTCREEHKKKHPDASVNFSEFSKKCSERWKTMSAKEKGKFEDMAKADKARYEREMKTYIPPKGETKKKFKDPNAPKRPPSAFFLFCSEYRPKIKGEHPGLSIGDVAKKLGEMWNNTAADDKQPYEKKAAKLKEKYEKDIAAYRAKGKPDAAKKGVVKAEKSKKKKEEEEDEEDEEDEEEEEDEEDEDEEEDDDDE [HMGB1]”, in the series on HeLa Kyoto [1], the “solubility in G1/S (log2)” value is 0.464. Moreover, the melting temperature in the series with HeLa Kyoto [2] (cell cycle stage: G1/S) stood at 55.4 °C; in the series on HeLa Kyoto [2] (cell cycle stage: mitosis), 54.4 °C. In addition, the thermal stability score with HeLa Kyoto [3] (setting [5]) turned out to be 3.27; in the series with HeLa Kyoto [3] (cell cycle stage: mitosis), 2.58. The “solubility change mitosis (log2)” value in the series on HeLa Kyoto [4] is 0.257.
With “MGKGDPNKPRGKMSSYAFFVQTCREEHKKKHPDSSVNFAEFSKKCSERWKTMSAKEKSKFEDMAKSDKARYDREMKNYVPPKGDKKGKKKDPNAPKRPPSAFFLFCSEHRPKIKSEHPGLSIGDTAKKLGEMWSEQSAKDKQPYEQKAAKLKEKYEKDIAAYRAKGKSEAGKKGPGRPTGSKKKNEPEDEEEEEEEEDEDEEEEDEDEE [HMGB2]”, the “solubility in G1/S (log2)” value in the series on HeLa Kyoto [1] was found to be 0.485. The melting temperature was determined as 58.1 °C in the series with HeLa Kyoto [2] (cell cycle stage: G1/S) and 56.7 °C in the series with HeLa Kyoto [2] (cell cycle stage: mitosis). Further, the thermal stability score in the series with HeLa Kyoto [3] (setting [5]) was 0.292; with HeLa Kyoto [3] (cell cycle stage: mitosis), -0.27. For the same sequence, the “solubility change mitosis (log2)” value in the series with HeLa Kyoto [4] came out at 0.338.
Turning to “MGKIALQLKATLENITNLRPVGEDFRWYLKMKCGNCGEISDKWQYIRLMDSVALKGGRGSASMVQKCKLCARENSIEILSSTIKPYNAEDNENFKTIVEFECRGLEPVDFQPQAGFAAEGVESGTAFSDINLQEKDWTDYDEKAQESVGIYEVTHQFVKC [C1ORF123]”, the “solubility in G1/S (log2)” value in the series with HeLa Kyoto [1] is -0.207. The values for the melting temperature in the series on HeLa Kyoto [2] (cell cycle stage: G1/S) and in the series on HeLa Kyoto [2] (cell cycle stage: mitosis) were 52.2 °C and 52.1 °C, respectively. Besides, the thermal stability score in the series with HeLa Kyoto [3] (setting [5]) is -0.132; with HeLa Kyoto [3] (cell cycle stage: mitosis), 0.084. Also, the “solubility change mitosis (log2)” value in the series on HeLa Kyoto [4] is -0.125.
